Target: human CD47-his (Sino Biological, CAT#12283-HCCH-50) (human) (UniProt Q08722)
Experiment: SPR (Biacore), KD compared with hu167-4

Molecule | KD ratio against hu167-4
hu167-31 (antibody, V domains shown) VH: QVQLVQSGAEVKKPGASVKVSCKASGYTFTSYWMHWVRQAPGQGLEWMGNIDPSDSETHYNQKFKDRVTMTRDTSISTAYMELSRLRSDDTAVYYCARWGYLGRSAMDYWGQGTTVTVSS VL: DVQMTQSPSSLSASVGDRVTITCRTSKSISKFLAWYQQKPGKAPKLLIYSGSTLQSGVPSRFSGSGSGTDFTLTISSLQPEDFATYYCQQHNEYPWTFGGGTKVEIK | 1.3
hu167-32 (antibody, V domains shown) VH: QVQLVQSGAEVKKPGASVKVSCKASGYTFTSYWMHWVRQAPGQGLEWMGNIDPSDSETHYNQKFKDRVTMTRDTSISTAYMELSRLRSDDTAVYYCARWGYLGRSAMDYWGQGTTVTVSS VL: DIQITQSPSSLSASVGDRVTITCRTSKSISKFLAWYQQKPGKAPKLLIYSGSTLQSGVPSRFSGSGSGTDFTLTISSLQPEDFATYYCQQHNEYPWTFGGGTKVEIK | 1.2
hu167-33 (antibody, V domains shown) VH: QVQLVQSGAEVKKPGASVKVSCKASGYTFTSYWMHWVRQAPGQGLEWMGNIDPSDSETHYNQKFKDRVTMTRDTSISTAYMELSRLRSDDTAVYYCARWGYLGRSAMDYWGQGTTVTVSS VL: DVQITQSPSSLSASVGDRVTITCRTSKSISKFLAWYQQKPGKAPKLLIYSGSTLQSGVPSRFSGSGSGTDFTLTISSLQPEDFATYYCQQHNEYPWTFGGGTKVEIK | 0.98

Target: T1, human CD47-his (Sino Biological, CAT#12283-HCCH-50) (human, UniProt Q08722 19-139, limits assumed)
T1 construct: Bought protein used as analyte in Biacore; also called 人CD47-his; human CD47-his antigen; not shown: His tag of the bought protein
Experiment: SPR (Biacore): antibody captured with human Fab capture kit on CM5 chip, human CD47-his flowed over

Molecule | KD fold difference (against ch-055) | Kd | koff | kon | KD fold difference (against ch-167)
hu055-1 (antibody, V domains shown) VH: QVQLVQSGAEVKKPGASVKVSCKASGYTFTSSYLHWVRQAPGQRLEWMGWIYPESGNTKYNERFKGRVTITRDTSASTAYMELSSLRSEDTAVYYCARRGDVFFAYWGQGTTVTVSS VL: DIVMTQSPDSLAVSLGERATINCKSSQSLLTSGKQKNYLTWYQQKPGQPPKLLIYWASTRESGVPDRFSGSGSGTDFTLTISSLQAEDVAVYYCQNDYSYPLTFGQGTKLEIK | 3.5 | 0.585 nM | 0.000976 s⁻¹ | 1.67e+06 M⁻¹ s⁻¹ | –
hu055-5 (antibody, V domains shown) VH: QVQLVQSGAEVKKPGASVKVSCKASGYTFTSSYLHWVRQAPGQRLDWIGWIYPESGNTKYNERFKGRATLTADTSASTAYMELSSLRSEDTAVYYCARRGDVFFAYWGQGTTVTVSS VL: DIVMTQSPDSLAVSLGERATINCKSSQSLLTSGKQKNYLTWYQQKPGQPPKLLIYWASTRESGVPDRFSGSGSGTDFTLTISSLQAEDVAVYYCQNDYSYPLTFGQGTKLEIKR | 1.1 | 0.182 nM | 0.000382 s⁻¹ | 2.1e+06 M⁻¹ s⁻¹ | –
hu055-8 (antibody, V domains shown) VH: QVQLVQSGAEVKKPGASVKVSCKASGYTFTSSYLHWVRQAPGQRLEWMGWIYPESGNTKYNERFKGRVTITRDTSASTAYMELSSLRSEDTAVYYCARRGDVFFAYWGQGTTVTVSS VL: DIVMTQSPDSLAVSLGERATINCKSSQSLLTSGKQKNYLTWYQQKPGQPPKLLIYWASTRESGVPERFSGSGSGTDFTLTISSLQAEDVAVYYCQNDYSYPLTFGQGTKLEIK | 3.7 | 0.617 nM | 0.000987 s⁻¹ | 1.6e+06 M⁻¹ s⁻¹ | –
chimeric antibody ch-167 (antibody, V domains shown) VH: QVQLQQPGAELVRPGSSVKLSCKASGYTFTSYWMHWVKQRPIQGLEWVGNIDPSDSETHYNQKFKDKATLTVDKSSSTAYMQLSSLTSEDSAVYYCARWGYLGRSAMDYWGQGTSVTVSS VL: DVQITQSPSYLAASPGETITINCRTSKSISKFLAWYQEKPGKTHKLLIYSGSTLQSGIPSRFSGSGSGTDFTLTISSLEPEDFAMYYCQQHNEYPWTFGGGTKLEIK | – | 0.325 nM | 0.000558 s⁻¹ | 1.72e+06 M⁻¹ s⁻¹ | 1
hu167-1 (antibody, V domains shown) VH: QVQLVQSGAEVKKPGASVKVSCKASGYTFTSYWMHWVRQAPGQGLEWMGNIDPSDSETHYNQKFKDRVTMTRDTSISTAYMELSRLRSDDTAVYYCARWGYLGRSAMDYWGQGTTVTVSS VL: DIQMTQSPSSLSASVGDRVTITCRTSKSISKFLAWYQQKPGKAPKLLIYSGSTLQSGVPSRFSGSGSGTDFTLTISSLQPEDFATYYCQQHNEYPWTFGGGTKVEIK | – | 0.664 nM | 0.000991 s⁻¹ | 1.49e+06 M⁻¹ s⁻¹ | 2.04
chimeric antibody ch-055 (antibody, V domains shown) VH: QVLLQQSGPELVQPGASVKISCKASGYSFTSSYLHWVKQRPGQGLDWIGWIYPESGNTKYNERFKGKATLTADTSSSTAYMQLSSLTSEDSAVYYCSRRGDVFFAYWGQGTTLTVSS VL: DIVMTQSPSYLTVTAGEKVTMSCKSSQSLLTSGKQKNYLTWYQQKPGQPPKLLIYWASTRESGVPERFRGSGSGTDFTLTISSVQAEDLAVYYCQNDYSYPLTFGAGTKLELN | 1 | 0.167 nM | 0.000389 s⁻¹ | 2.32e+06 M⁻¹ s⁻¹ | –

Target: natural CD47 on the surface of CCRF-CEM cells (UniProt Q08722)
Experiment: flow cytometry on CCRF-CEM cells, sample at 1 ug/ml, Alexa Fluor 488 goat anti-human (H+L); blank control 30.0

Molecule | flow cytometry binding signal (流式结合信号)
IgG4-Fc control | 65.1

Target: natural CD47 on the surface of CCRF-CEM cells (UniProt Q08722)
Experiment: flow cytometry on CCRF-CEM cells, antibody at 1 ug/ml, Alexa Fluor 488 goat anti-human (H+L); blank control 30.0

Molecule | flow cytometry binding signal (流式结合信号)
hu167-33 (antibody, V domains shown) VH: QVQLVQSGAEVKKPGASVKVSCKASGYTFTSYWMHWVRQAPGQGLEWMGNIDPSDSETHYNQKFKDRVTMTRDTSISTAYMELSRLRSDDTAVYYCARWGYLGRSAMDYWGQGTTVTVSS VL: DVQITQSPSSLSASVGDRVTITCRTSKSISKFLAWYQQKPGKAPKLLIYSGSTLQSGVPSRFSGSGSGTDFTLTISSLQPEDFATYYCQQHNEYPWTFGGGTKVEIK | 27800

Reference: patent WO2018095428A1 (dated 2018)
